Where two headings read alike, the source gives them in different places.
Legend:
[1] = biological target: stabilized microtubules polymerized from pig brain tubulin (GMPCPP-stabilized or Taxotere-stabilized) (pig); test: TIRF microscopy of fluorescent kinesin on surface-attached microtubules
[2] = biological target: full-length Kip2-Δ70 (S. cerevisiae) (UniProt P28743); test: TIRF microscopy, tubulin transport assay
[3] = biological target: stabilized microtubules polymerized from pig brain tubulin (GMPCPP-stabilized or Taxotere-stabilized) (pig); test: TIRF microscopy of fluorescent kinesin on surface-attached microtubules; remark: listed apart in the source

fold lower affinity than bKip2-WT [1] [fold]	fold lower affinity than bKip2-WT [3] [fold]	Substance	fold reduction of tubulin transport events against wild type Kip2 [2] [fold]
1.3		bKip2-Δ70 (from UniProt P28743 71-560) (domain or fragment)	
		free tubulin dimers, ATTO-488-labelled, from pig brain (complex)	3 to 8
3.5	2.8	bKip2-P1 (motor domain P1 mutant, K294R K296R) (from UniProt P28743 1-560) (domain or fragment)	

From doi:10.1101/2024.07.19.604271
